Test results: patent publication US20240027454

Columns and labels:
[1] = system: CMC 9M31F-AAPFA-RBB
[2] = system: Fmoc-AAPF-aminoethyl-(Remazol Black B)-(N-acetyl)-ethylamide
[3] = system: CMC 9M31F-AAPF-RBB
[4] = system: T1, AAPVA-RBB linked to poly-(N-acroyl-Boc-Lys-OH)-co-(acroyl-Cys(Trt)-OH)
T1 sequence: AAPVX

[5] = system: H-AAPV-Ahx-CV
[6] = system: T2, 4-([4-(H-Ala-Ala-Pro-Val-Ala)amido N-piperazino]phenyl)-bis-(4-dimethyl-aminophenyl)-carbenium ion
T2 sequence: AAPVX

[7] = system: T3, AAPVA-RBB linked to polymer, product of Step A of Example 62 after trifluoroacetic acid treatment
T3 sequence: AAPVX

[8] = biological target: Fmoc-AAPF-Indoxyl ester
[9] = biological target: Fmoc-AAPF-aminoethyl-(Remazol Black B)-(N-acetyl)-ethylamide; remark: listed apart in the source
[10] = biological target: AAPVA-RBB Bound to Paper Membrane
[11] = biological target: HEC-PEG200-N-propionyl-AAPF-RBB
[12] = biological target: Fmoc-AAPA-Indoxyl ester
[13] = biological target: T4, Fmoc-F-V-T(Bzl)-F- indoxyl ester (not fully specified)
T4 chain: FVTF

[14] = biological target: H-AAPF-RBB
[15] = biological target: Fmoc-AAAPM-RBB
[16] = biological target: T5, H-AAPFA-RBB
T5 chain: AAPFX

[17] = biological target: CMC 9M31F-AAPF-RBB; remark: listed apart in the source
[18] = biological target: CMC 9M31F-AAPFA-RBB; remark: listed apart in the source
[19] = biological target: HEC-EDA-N-propionyl-AAPF-RBB
[20] = biological target: Fmoc-AAAA-Indoxyl ester
[21] = biological target: T6, Fmoc-AAPVAV-{2-hydroxy-3-[1-(5N-RBB-methyl)1,2,3-triazolyl)}propylamide
T6 chain: XAPVAX

[22] = biological target: T7, Fmoc-AAA-indoxyl ester
T7 chain: AAA

[23] = biological target: Fmoc-AAPV-4-methoxy-1-naphthol ester
[24] = biological target: Fmoc-AAPV-(2-Napthol)
[25] = biological target: T8, H-AAPVAA-RBB
T8 chain: AAPVAX

[26] = biological target: T9, H-AAAPM-RBB
T9 chain: AAAPX

[27] = biological target: T10, Fmoc-APV-Indoxyl ester
T10 chain: APV

[28] = biological target: Fmoc-AAPV-4-naphthol ester
[29] = biological target: Peptide-Labelled beadBALL Amine Microspheres with Long-Chain Linker (PEG(2000)-AAPV-RBB)
[30] = biological target: T11, AAPVA-RBB linked to poly-(N-acroyl-Boc-Lys-OH)-co-(acroyl-Cys(Trt)-OH)
T11 chain: AAPVX

[31] = biological target: T12, Non-bead-bound polymeric material of Example 67 (AAAPVV-RBB polyacrylamide quenched with ethanolamine) (not fully specified)
T12 chain: AAAPVX

[32] = biological target: N-(Propionyl-AAPV-RBB)-Propylamino HEC
[33] = biological target: Fmoc-AAPV-5-Bromo-4-Chloro-Indoxyl ester
[34] = biological target: T13, AAAPV-RBB bound to Beads (Sephabeads ECEP, epoxy activated)
T13 chain: AAAPX

[35] = biological target: T14, AAAPVV-RBB on polyacrylate bound to Chemicell SiCore Amin beads
T14 chain: AAAPVX

[36] = biological target: Fmoc-AAAPV-Indoxylester
[37] = biological target: T15, AAAPVV-RBB linked through Jeffamine EDR 176 to polyacrylate quenched with N,N-dioctyl amine (not fully specified)
T15 chain: AAAPVX

[38] = biological target: T16, AAPVA-RBB linked through ethylenediamine-glycyl spacer to polyacrylate (not fully specified)
T16 chain: AAPVX

[39] = biological target: T17, AAPVA-RBB linked to polymer, product of Step A of Example 62 after trifluoroacetic acid treatment (not fully specified)
T17 chain: AAPVX

[40] = biological target: T18, AAAPV-RBB polyacrylamide with N,N-dioctylamine anchors (not fully specified)
T18 chain: AAAPX

[41] = biological target: T19, 4-([4-(H-Ala-Ala-Pro-Val-Ala)amido N-piperazino]phenyl)-bis-(4-dimethyl-aminophenyl)-carbenium ion polyacrylamide (not fully specified)
T19 chain: AAPVX

[42] = biological target: AAPV-RBB-Labelled Silica
[43] = biological target: T20, Poly-co-[(N-mercaptoethyl acrylamide)-(AAAPV-{RBB}-acrylamide)], procedure b
T20 chain: AAAPX

[44] = biological target: T21, AAAPV-RBB linked through Jeffamine EDR 176 to polyacrylate quenched with N,N-dioctyl amine (not fully specified)
T21 chain: AAAPX

[45] = biological target: T22, Poly-co-[(N-mercaptoethyl acrylamide)-(AAAPVV-{RBB}-acrylamide)], procedure b
T22 chain: AAAPVX

[46] = biological target: T23, AAAPVV-RBB on polyacrylate bound to SiCore Amin beads, procedure f
T23 chain: AAAPVX

[47] = biological target: Fmoc-AAAPV-3-Indolamide
[48] = biological target: T24, Poly-co-[(N-mercaptoethyl acrylamide)-(AAAPVV-{RBB}-acrylamide)], procedure a
T24 chain: AAAPVX

[49] = biological target: T25, Poly-co-[(N-mercaptoethyl acrylamide)-(AAAPV-{RBB}-acrylamide)], procedure a (not fully specified)
T25 chain: AAAPX

[50] = biological target: T26, AAAPVV-RBB polyacrylamide with N,N-dioctylamine anchors (not fully specified)
T26 chain: AAAPVX

[51] = biological target: Fmoc-AAAPV-(N-acetyl)-indoxyl ester
[52] = biological target: Fmoc-AAPV-Indoxyl ester
[53] = biological target: HEC-EDR176-N-Propionyl-AAPVA-RBB
[54] = biological target: T27, N-[(3-triethoxysilyl)propyl]-N'-[AAAPVV-RBB]urea bound to silica gel (not fully specified)
T27 chain: XAAPVX

Q: What does the source list for elastase?
A: release of the dye, ESI MS [1]: Reaction with elastase was detected using ESI MS to detect the release of the dye; cleavage, product found by MS [2]: reaction with elastase to yield the mono-acetylated-Remazol Black B-amino derivative; release of the dye, ESI MS [3]: Reaction with elastase is detected using ESI MS to detect the release of the dye; release of Ala-RBB, MS-analysis [4]: Treatment with elastase released Ala-RBB, as found by MS-analysis (m/z=571, negative mode); release of Ahx-CV, MS-analysis [5]: Treatment of the product of Example 72 with elastase releases no Ahx-CV, as found by MS-analysis (no m/z=526, positive mode); release of A-CV, MS-analysis [6]: Treatment of the material with elastase released A-CV, as found by MS-analysis (m/z=484, positive mode); release of A-RBB, MS-analysis [7]: Treatment with elastase released A-RBB, as found by MS-analysis (m/z=571, negative mode)

B1: cathepsin G (protein)
chain: IIGGRESRPHSRPYMAYLQIQSPAGQSRCGGFLVREDFVLTAAHCWGSNINVTLGAHNIQRRENTQQHITARRAIRHPQYNQRTIQNDIMLLQLSRRVRRNRNVNPVALPRAQEGLRPGTLCTVAGWGRVSMRRGTDTLREVQLRVQRDRQCLRIFGSYDPRRQICVGDRRERKAAFKGDSGGPLLCNNVAHGIVSYGKSSGVPPEVFTRVSSFLPWIRTTMRS
Q: For B1, which “Cathepsin Cleavage” value [8] is on record?
A: 0

Q: What about the “Cathepsin Cleavage” value [9] of the same molecule?
A: 0

Q: What about the “Cathepsin Cleavage” value [10] of the same molecule?
A: 0

Q: What about the “Cathepsin Cleavage” value [11] of the same molecule?
A: +

Q: And the “Cathepsin Cleavage” value [12]?
A: 0

Q: And the “Cathepsin Cleavage” value [13]?
A: 0

Q: What about the “Cathepsin Cleavage” value [14] of the same molecule?
A: 0

Q: What about the “Cathepsin Cleavage” value [15] of the same molecule?
A: 0

Q: And the “Cathepsin Cleavage” value [16]?
A: 0

Q: What about the “Cathepsin Cleavage” value [17] of the same molecule?
A: ++

Q: And the “Cathepsin Cleavage” value [18]?
A: ++

Q: And the “Cathepsin Cleavage” value [19]?
A: +

Q: And the “Cathepsin Cleavage” value [20]?
A: 0

Q: What about the “Cathepsin Cleavage” value [21] of the same molecule?
A: 0

Q: What about the “Cathepsin Cleavage” value [22] of the same molecule?
A: 0

Q: What about the “Cathepsin Cleavage” value [23] of the same molecule?
A: 0

Q: What about the “Cathepsin Cleavage” value [24] of the same molecule?
A: 0

Q: And the “Cathepsin Cleavage” value [25]?
A: 0

Q: What about the “Cathepsin Cleavage” value [26] of the same molecule?
A: 0

Q: What about the “Cathepsin Cleavage” value [27] of the same molecule?
A: 0

Q: And the “Cathepsin Cleavage” value [28]?
A: 0

B2: human elastase from leucocytes (protein)
chain: IVGGRRARPHAWPFMVSLQLRGGHFCGATLIAPNFVMSAAHCVANVNVRAVRVVLGAHNLSRREPTRQVFAVQRIFENGYDPVNLLNDIVILQLNGSATINANVQVAQLPAQGRRLGNGVQCLAMGWGLLGRNRGIASVLQELNVTVVTSLCRRSNVCTLVRGRQAGVCFGDSGSPLVCNGLIHGIASFVRGGCASGLYPDAFAPVAQFVNWIDSIIQ
Q: B2 was tested. Which “Human Elastase Cleavage” value [8] did it give?
A: +

Q: What about the “Human Elastase Cleavage” value [29] of the same molecule?
A: 0

Q: What about the “Human Elastase Cleavage” value [30] of the same molecule?
A: +

Q: And the “Human Elastase Cleavage” value [31]?
A: +++

Q: What about the “Human Elastase Cleavage” value [12] of the same molecule?
A: +++

Q: What about the “Human Elastase Cleavage” value [32] of the same molecule?
A: +++

Q: And the “Human Elastase Cleavage” value [13]?
A: 0

Q: What about the “Human Elastase Cleavage” value [33] of the same molecule?
A: +++

Q: And the “Human Elastase Cleavage” value [34]?
A: 0

Q: And the “Human Elastase Cleavage” value [35]?
A: 0

Q: And the “Human Elastase Cleavage” value [36]?
A: ++

Q: What about the “Human Elastase Cleavage” value [37] of the same molecule?
A: +

Q: What about the “Human Elastase Cleavage” value [38] of the same molecule?
A: +

Q: What about the “Human Elastase Cleavage” value [39] of the same molecule?
A: ++

Q: What about the “Human Elastase Cleavage” value [20] of the same molecule?
A: 0

Q: What about the “Human Elastase Cleavage” value [40] of the same molecule?
A: ++

Q: What about the “Human Elastase Cleavage” value [41] of the same molecule?
A: 0(+)

Q: And the “release of A-CV, mass peak” value [41]?
A: Treatment with porcine and human elastase releases A-CV, as proven by the appearance of a mass peak at m/z=484

Q: What about the “Human Elastase Cleavage” value [42] of the same molecule?
A: ++

Q: And the “Human Elastase Cleavage” value [43]?
A: ++

Q: And the “Human Elastase Cleavage” value [22]?
A: ++

Q: And the “Human Elastase Cleavage” value [44]?
A: +

Q: What about the “Human Elastase Cleavage” value [23] of the same molecule?
A: +

Q: And the “Human Elastase Cleavage” value [45]?
A: +++

Q: And the “Human Elastase Cleavage” value [46]?
A: 0

Q: What about the “Human Elastase Cleavage” value [24] of the same molecule?
A: +

Q: And the “Human Elastase Cleavage” value [47]?
A: ++

Q: What about the “Human Elastase Cleavage” value [48] of the same molecule?
A: +++

Q: And the “Human Elastase Cleavage” value [49]?
A: ++

Q: What about the “Human Elastase Cleavage” value [50] of the same molecule?
A: +++

Q: And the “Human Elastase Cleavage” value [51]?
A: ++

Q: And the “Human Elastase Cleavage” value [26]?
A: +

Q: What about the “Human Elastase Cleavage” value [27] of the same molecule?
A: +

Q: What about the “Human Elastase Cleavage” value [52] of the same molecule?
A: +++

Q: What about the “Human Elastase Cleavage” value [53] of the same molecule?
A: +++

Q: And the “Human Elastase Cleavage” value [54]?
A: +++

Q: And the “Human Elastase Cleavage” value [28]?
A: +
